System: C[C@H](NC(=O)[C@H](C)NC(=O)[C@H](CCCNC(=N)N)NC(=O)[C@H](CCCNC(=N)N)NC(=O)c1cc(F)ccc1O)C(N)=O
Assay: purified protein, by the assay type
Conditions: other: detailed kinetic analysis of substrate hydrolysis; pH 8.0; 25.0 °C
Experimental: The combinatorial tetrapeptide library thus obtained was used to assay the substrate specificity of bovine p-chymotrypsin as follows. A 1 μL aliquot of each library member in DMSO was diluted to 100 μL in one well of a black polystyrene 96-well plate with a solution containing 50 mM Tris-HCl pH 8.0, 100 mM NaCl, 20 mM CaCl2, 10 μM [Tb(EDTA)]+and 10 μM enzyme. The resulting mixture was allowed to react at 25° C. for 30 min. Hydrolysis was followed by observing the increase in fluorescence at 546 nm upon excitation at 250 nm.
To elucidate any cooperativity between subsites, a series of single substrates was synthesized and assayed with chymotrypsin. […] Peptide sequences were designed to compare the most reactive amino acid in each sublibrary (Arg) with an amino acid with moderate reactivity and neutral functionality (Ala). Alanine, a small, neutral amino acid, was included in the P4′ position in all peptides, providing extended backbone interactions to enhance turnover. The kinetic data obtained from single substrate hydrolysis were analyzed using the standard Michaelis-Menten equation.

Q: Which Km does the source give for bovine α-chymotrypsin (Bos taurus) here?
A: Its Km is 500 ± 100 µM.

Q: And the kcat?
A: Its kcat is 2.2 ± 0.2 s⁻¹.

Q: What about the kcat/Km of the same substance?
A: Its kcat/Km is 4400 ± 1000 M⁻¹ s⁻¹.

— patent US20050207981A1, “Compositions and methods for determining substrate specificity of hydrolytic enzymes” (The Regents of the University of California, priority 2003, published 2005)
